What was measured:
Expi293 cells [1] = assay: Measurement of the Cell Association of Helicons (mass spectrometry quantification in cells after treatment and wash); type: cell-based; settings: percentage of Helicons in cells after treatment and wash, 22 hours, n = 2, mean ± SD
Method: All samples were analyzed using mass spectrometry.

Expi293 cells [2] = assay: CellTiter-Glo cell health (ATP levels) during cell association assay; type: cell-based; settings: reflective of cell health, luminescence Tfinal (22 hours) / Tinitial
CUL1 = biological target: T1, CUL1 (Homo sapiens, UniProt Q13616, L371D/V367R); assay: Naive Library Presenter Screening (phage, NGS), CUL1; type: binding; settings: for interaction data at Target Concentration 10: CUL1 target concentration 10 nM; for interaction data at Target Concentration 30: CUL1 target concentration 30 nM; for interaction data at Target Concentration 100: CUL1 target concentration 100 nM; for interaction data at Target Concentration 300: CUL1 target concentration 300 nM; for interaction data at Target Concentration 1000: CUL1 target concentration 1000 nM
T1 construct: CUL1 (Uniprot ID: Q13616, residue 15-410, V367R/L371D); GST-TEV (N, cleaved yes); made in house; host or cells: E. coli BL21 CodonPlus
T1 sequence (Q13616 15-410 V367R/L371D): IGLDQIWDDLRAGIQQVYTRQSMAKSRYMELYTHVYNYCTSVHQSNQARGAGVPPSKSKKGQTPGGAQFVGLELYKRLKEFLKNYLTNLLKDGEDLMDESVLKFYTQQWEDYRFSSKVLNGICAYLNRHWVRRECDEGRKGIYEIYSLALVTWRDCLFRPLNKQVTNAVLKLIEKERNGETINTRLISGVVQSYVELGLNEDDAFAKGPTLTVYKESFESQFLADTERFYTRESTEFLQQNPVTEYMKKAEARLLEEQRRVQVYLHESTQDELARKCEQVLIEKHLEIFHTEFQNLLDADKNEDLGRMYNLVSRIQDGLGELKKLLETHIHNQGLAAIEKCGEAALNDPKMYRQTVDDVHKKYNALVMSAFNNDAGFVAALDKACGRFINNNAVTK

| Molecule | Helicon in cells ± SD (%) (Expi293 cells [1]) | CellTiter-Glo fold change ± SD (Expi293 cells [2]) | interaction data at Target Concentration 10 (CUL1) | interaction data at Target Concentration 30 (CUL1) | interaction data at Target Concentration 100 (CUL1) | interaction data at Target Concentration 300 (CUL1) | interaction data at Target Concentration 1000 (CUL1; first column) | interaction data at Target Concentration 1000 (CUL1; second column) |
| --- | --- | --- | --- | --- | --- | --- | --- | --- |
| CCCC[C@H](NC(=O)[C@@H](NC(C)=O)C(C)C)C(=O)N[C@@H](CCC(=O)O)C(=O)N[C@]1(C)CCCCCCC=CCCC[C@@](C)(C(=O)N[C@@H](Cc2c[nH]cn2)C(=O)N[C@@H](Cc2ccc(O)cc2)C(=O)N[C@H](C(N)=O)C(C)C)NC(=O)[C@H]([C@@H](C)CC)NC(=O)[C@H](Cc2ccccc2)NC(=O)[C@H](C)NC(=O)[C@H](C)NC(=O)[C@H](CCC(=O)O)NC(=O)[C@H](Cc2ccc(O)cc2)NC1=O (single isomer, unassigned) [FP07855, Ac-Val-nLeu-Glu-R8-Tyr-Glu-Ala-Ala-Phe-Ile-S5-His-Tyr-Val-NH2] | 16.4 ± 0.6 | 1.2 ± 0.10 | – | – | – | – | – | – |
| CCCC[C@H](NC(=O)[C@@H](NC(C)=O)C(C)C)C(=O)N[C@@H](CCC(=O)O)C(=O)N[C@]1(C)CCCCCCC=CCCC[C@@](C)(C(=O)N[C@@H](Cc2c[nH]cn2)C(=O)N[C@@H](Cc2ccc(O)cc2)C(=O)N[C@H](C(N)=O)C(C)C)NC(=O)[C@H]([C@@H](C)CC)NC(=O)[C@H](Cc2ccccc2)NC(=O)[C@H](C)NC(=O)[C@H](C)NC(=O)[C@H](CCC(=O)O)NC(=O)[C@H](Cc2ccc(O)cc2)NC1=O (single isomer, unassigned) [FP07856, Ac-Val-nLeu-Glu-R8-Tyr-Glu-Ala-Ala-Phe-Ile-S5-His-Tyr-Val-NH2] | 15.5 ± 0.9 | 1.3 ± 0.12 | – | – | – | – | – | – |
| CC[C@H](C)[C@H](NC(C)=O)C(=O)N[C@@H](CC(C)C)C(=O)N[C@@H](CCC(N)=O)C(=O)N[C@]1(C)CCCCCCC=CCCC[C@@](C)(C(=O)N[C@@H](Cc2c[nH]cn2)C(=O)N[C@@H](Cc2ccc(O)cc2)C(=O)N[C@@H](CCC(N)=O)C(N)=O)NC(=O)[C@H](CO)NC(=O)[C@H](Cc2ccccc2)NC(=O)[C@H](C)NC(=O)[C@H](C)NC(=O)[C@H](CCC(=O)O)NC(=O)[C@H](Cc2ccc(O)cc2)NC1=O (single isomer, unassigned) [FP07859, Ac-Ile-Leu-Gln-R8-Tyr-Glu-Ala-Ala-Phe-Ser-S5-His-Tyr-Gln-NH2] | 0.1 ± 0.0 | 1.2 ± 0.02 | – | – | – | – | – | – |
| CC[C@H](C)[C@H](NC(C)=O)C(=O)N[C@@H](CC(C)C)C(=O)N[C@@H](CCC(N)=O)C(=O)N[C@]1(C)CCCCCCC=CCCC[C@@](C)(C(=O)N[C@@H](Cc2c[nH]cn2)C(=O)N[C@@H](Cc2ccc(O)cc2)C(=O)N[C@@H](CCC(N)=O)C(N)=O)NC(=O)[C@H](CO)NC(=O)[C@H](Cc2ccccc2)NC(=O)[C@H](C)NC(=O)[C@H](C)NC(=O)[C@H](CCC(=O)O)NC(=O)[C@H](Cc2ccc(O)cc2)NC1=O (single isomer, unassigned) [FP07860, Ac-Ile-Leu-Gln-R8-Tyr-Glu-Ala-Ala-Phe-Ser-S5-His-Tyr-Gln-NH2] | 0.3 ± 0.0 | 1.2 ± 0.03 | – | – | – | – | – | – |
| CCCC[C@H](NC(=O)[C@@H](NC(C)=O)C(C)C)C(=O)N[C@@H](CCC(N)=O)C(=O)N[C@]1(C)CCCCCCC=CCCC[C@@](C)(C(=O)N[C@@H](Cc2c[nH]cn2)C(=O)N[C@@H](Cc2ccc(O)cc2)C(=O)N[C@H](C(N)=O)C(C)C)NC(=O)[C@H]([C@@H](C)CC)NC(=O)[C@H](Cc2ccccc2)NC(=O)[C@H](C)NC(=O)[C@H](C)NC(=O)[C@H](CCC(=O)O)NC(=O)[C@H](Cc2ccc(O)cc2)NC1=O (single isomer, unassigned) [FP07863, Ac-Val-nLeu-Gln-R8-Tyr-Glu-Ala-Ala-Phe-Ile-S5-His-Tyr-Val-NH2] | 23.5 ± 6.5 | 1.2 ± 0.02 | – | – | – | – | – | – |
| CCCC[C@H](NC(=O)[C@@H](NC(C)=O)C(C)C)C(=O)N[C@@H](CCC(N)=O)C(=O)N[C@]1(C)CCCCCCC=CCCC[C@@](C)(C(=O)N[C@@H](Cc2c[nH]cn2)C(=O)N[C@@H](Cc2ccc(O)cc2)C(=O)N[C@H](C(N)=O)C(C)C)NC(=O)[C@H]([C@@H](C)CC)NC(=O)[C@H](Cc2ccccc2)NC(=O)[C@H](C)NC(=O)[C@H](C)NC(=O)[C@H](CCC(=O)O)NC(=O)[C@H](Cc2ccc(O)cc2)NC1=O (single isomer, unassigned) [FP07864, Ac-Val-nLeu-Gln-R8-Tyr-Glu-Ala-Ala-Phe-Ile-S5-His-Tyr-Val-NH2] | 18.5 ± 11.4 | 1.1 ± 0.05 | – | – | – | – | – | – |
| CCCC[C@H](NC(=O)[C@@H](NC(C)=O)C(C)C)C(=O)N[C@@H](CCC(=O)O)C(=O)N[C@]1(C)CCCCCCC=CCCC[C@@](C)(C(=O)N[C@@H](Cc2c[nH]cn2)C(=O)N[C@@H](Cc2ccc(O)cc2)C(=O)N[C@H](C(N)=O)C(C)C)NC(=O)[C@H]([C@@H](C)CC)NC(=O)[C@H](Cc2ccccc2)NC(=O)[C@H](C)NC(=O)[C@H](C)NC(=O)[C@H](CCC(N)=O)NC(=O)[C@H](Cc2ccc(O)cc2)NC1=O (single isomer, unassigned) [FP07867, Ac-Val-nLeu-Glu-R8-Tyr-Gln-Ala-Ala-Phe-Ile-S5-His-Tyr-Val-NH2] | 8.6 ± 0.4 | 1.2 ± 0.03 | – | – | – | – | – | – |
| CCCC[C@H](NC(=O)[C@@H](NC(C)=O)C(C)C)C(=O)N[C@@H](CCC(=O)O)C(=O)N[C@]1(C)CCCCCCC=CCCC[C@@](C)(C(=O)N[C@@H](Cc2c[nH]cn2)C(=O)N[C@@H](Cc2ccc(O)cc2)C(=O)N[C@H](C(N)=O)C(C)C)NC(=O)[C@H]([C@@H](C)CC)NC(=O)[C@H](Cc2ccccc2)NC(=O)[C@H](C)NC(=O)[C@H](C)NC(=O)[C@H](CCC(N)=O)NC(=O)[C@H](Cc2ccc(O)cc2)NC1=O (single isomer, unassigned) [FP07868, Ac-Val-nLeu-Glu-R8-Tyr-Gln-Ala-Ala-Phe-Ile-S5-His-Tyr-Val-NH2] | 10.3 ± 1.4 | 1.2 ± 0.10 | – | – | – | – | – | – |
| CCCC[C@H](NC(=O)[C@@H](NC(C)=O)C(C)C)C(=O)N[C@@H](CCC(N)=O)C(=O)N[C@]1(C)CCCCCCC=CCCC[C@@](C)(C(=O)N[C@@H](Cc2c[nH]cn2)C(=O)N[C@@H](Cc2ccc(O)cc2)C(=O)N[C@H](C(N)=O)C(C)C)NC(=O)[C@H]([C@@H](C)CC)NC(=O)[C@H](Cc2ccccc2)NC(=O)[C@H](C)NC(=O)[C@H](C)NC(=O)[C@H](CCC(N)=O)NC(=O)[C@H](Cc2ccc(O)cc2)NC1=O (single isomer, unassigned) [FP07871, Ac-Val-nLeu-Gln-R8-Tyr-Gln-Ala-Ala-Phe-Ile-S5-His-Tyr-Val-NH2] | 7.0 ± 0.3 | 1.2 ± 0.03 | – | – | – | – | – | – |
| DPAQNDCEVAAFFCWLD | – | – | 1 | 1 | 233 | 428 | 586 | 468 |
| DPAVMECDWAATICDIF | – | – | 0 | 2 | 154 | 402 | 477 | 419 |
| DPAYDWCDVAALFCLVE | – | – | 0 | 0 | 57 | 36 | 57 | 151 |
| DPAYFACDIAALMCTVH | – | – | 0 | 2 | 131 | 135 | 403 | 120 |

From patent publication US20240376151A1, “STAPLED PEPTIDES AND METHODS THEREOF” (FOG PHARMACEUTICALS, INC., priority 2022, published 2024)
